experiment: soluble on expression in E. coli; label from the status in PepcDB or PDB records

Sequence	soluble on expression in E. coli
MIYTLENQHLKISLSNHGGELHSIKGKKDNTEFLWSGDEAYWKYHAPILFPIVGKVFNGKYTVDGITYELPQHGLARVRDFEMIEQTKNSISFELKYSEDTLKVYPFKFSLIIKYTLNDINLSIDYIVKNLDNKEMYFSIGAHPAFMCPIENDKFDDYYFEFNKKENASIMQLVGPGYFSKEEKPYLKDEHIINLSTDLFKNDALVFKNLKSNKISLKSKNHKKYLEFDFGEFPYLGLWTKDTGAPFVCIEPWFGHADFDGFNGEFKDKAAIQSLMPNKEFHCNYNISFFELEHHHHHH	soluble
MSLAEQATKSVLFVCLGNICRSPIAEAVFRKLVTDQNISENWVIDSGAVSDWNVGRSPDPRAVSCLRNHGIHTAHKARQITKEDFATFDYILCMDESNLRDLNRKSNQVKTCKAKIELLGSYDPQKQLIIEDPYYGNDSDFETVYQQCVRCCRAFLEKAHEGHHHHHH	soluble
MLQLTLESSFSNTLTVSELNSYVKSTLEEDFLLKRACIKGEISNCTLHKSGHVYFTLKDENSAIDCVMFKPYTKKLDFSPAEGMSVIIKGKVSLYTKTGKYQFYCNEMEKEGLGDLFIKFKKLKEKLESEGLFNEEYKQKIPKYPKNIGIITSPTGAAIRDIIKVTRNRNSSVNLIIYPAVVQGESAAKTVISGISELNKLEKIDLIIIARGGGSMEDLWCFNNESLARAIFESKKPVITGIGHETDFTISDFVSDLRAATPSNAAEIAIYNEYELKSMINNLERMLKNRMKTEISNRSYELDILYSKIEKNSPKSKIEKQKVHVDKIRAQMNHEIKNKISYEVKRFEKSYSLLNAYNPLNVLNKGYSIIQDENEKIISSKSSLNLENDVKITLKDGTVDAHITLKE	not soluble
MGSDKIHHHHHHMIFSMSSLHDMRFICLRTAPLKNSAYLLSALLIIACQPTSPTEALTSENNEMVDMPLISADSVTITPDHILSIKPTRYQPSLGLQGRIDSIKQINLVAGQPLTVEQVLVSENQWVKKGTPLLTVRRQEIFNKPTMSDDPATDVDASLNTTASNIDRASASDNTSQTSDLITLRARFSGRVENLSVQAGQKIEAQTALLKLSDATELHFISTLPIEAESQISVGQTVNFTAEDRVDKFTGQVSKVQALKQPIQLLVYVNVINNEVSRNQLAPGMQVTGRVDYGQIEVGTIVPKNALHNVDLTQIQVPPYKPLRSLTANIWIIGQDQRLTRQPIEVIEYDPLTKQYLIAGISSDSLICLANLPIESKGKKVVVS	not soluble
MSLEYKVEDVSPVKKKVNVTVPVEEVDAALGAAIAMYRTSVNLDGFRKGKVPASIVENRFRKEIYAEATQDLVNVHINEIVTSLAVSPLSRIDFDGGELERGKEFSYTISFEVMPQFDLPDYEGFAVEQEKAVVDEKEVDEVIARIRRNMAELVPVAETRPGADGDVVVLDFAAFENGEPIEGVSAENFQLSLGEKQSLEDFENLVKTIPAGQEAEGPITFPDDFLNPDFAGKTVTMKVKVHAVKERRLPEIDDALAQKAGGFESMEKMRETVVTSYMQSREQLHKATAQKSMLDKLLKMVDFALPESMVDMYVGNLIEDMRVKMERQGRGLESLGKTPEQLREQVLPEAQQIARSQIFLLAAGRKEAVEVSEQEVDGQLQQLAMRSGQDFDTLKDYYVRNGLIFNLRDRLIADKAMDAIYAKANVTMVDPAPAEGHHHHHH	soluble
MAELIHSTIGRLLEQTADAYPDRDAVVYPDRNIRYTYAQFDSLCRQTAKGLMRMGIGKGDHVAIWASNISEWLAVQFATAKIGAVLVTVNTNYQAHELDYLLKQSDAAALIIMDSYRGTSYPDIVNSLIPELQEAKPGQLKSERYPFLKTLIYIGNKRLSGMYHWDDTEILAKTVTDAELEERMNSLDKDNVINMQYTSGTTGFPKGVMLTHFNVINNAANIAECMALTSQDRMCIPVPFFHCFGCVLGVLACVSVGAAMIPVQEFDPVTVLKTVEKEKCTVLHGVPTMFIAELHHPDFDAYDLSTLRTGIMAGSPCPSEVMKAVIERMGMKDITIAYGQTEASPVITQTRANDSFIRRVETTGRALPHTEVKIVEPGTCQEVQRGMQGELCTRGYHVMKGYYKDKDATRKAINHDGWLFTGDLAVMDEDGYCRITGRLKDMLIRGGENIYPREIEEFLYQHPAVLDVQVVGVPDAKFGEEAAAWIKLKDGKSVSPDELKAYCKGKIARHKIPRYVIFTDDYPMTASGKIQKY	not soluble
MAKLYFYYSAMNAGKTTTLLQSAHNYRERGMRTLILTPKLDHRAGSGVVASRIGLRADGRIFERDTELQQLVERDIHNDGALHCVLVDEAQFLSRAQVWQLSEVVDRLRIPVLCYGLRTDFRGELFEGSQFLLAWADELEEIKTICHSGSKATMTVRVDAHGHAVQDGPQVEIGGNERYVSVSRAEFKKIMRGEGRIDPLQIALPLPVALEHHHHHH	not soluble
MGSDKIHHHHHHMSEQVRSLSEFTAEVEAMTAAMMTEEPQEIASMRCGEMENTAGSYGQYFGTWDIAHGMLRDYSMYTLYPITALAEDAEMDLTSLSKTVDALDPAYSNYLRYSGFPRMGKLAVELRGLIRASTSRSDIVAALRAFTAYTNRLQAWSFHYFPWGLGKHFRYDEARLQDAPLPVADLGATRACITCGQRIRISWEPLGITVNATLASEENPELCADVVAALPFTVIQDHAVVTGESMYAWTPVLSTAPIHLRERICDAPVGRLRYSQSTGQKFIVQYGPTTEDLSQPVLGEIDAADAGKLEQVGRAVWDSTFDNKQLIWMTVELA	not soluble
LADYGRTAAVNRVEMRDTELGIVTAGVSYQYVREVFPNASVLKLGMVYPLPMDLIREFASKVTKLIVVEELDAFIEDQVKAAGISVTGKEAIPLCGELTPGRLRAAFGIPGAPQVTVENLPGRPPNMCPGCPHRGVFFTLNQLKAYVTGDIGCYTLGFMPPLNAMDTCVCMGASISSASGIVRVLSDEEKKKVVAVIGDSTFLHTGVNSLMEMAYNKAPATVVILDN	not soluble
MYNALYLYCSEYKYEDSIMTISIRLPSDLETRLNNLAAKTGRTKSFYLREIIERGIEEAEDYYLASQVRERVRKGEGTFYSSEEVRKELGLDD	not soluble
MESLAAKVVERLNRAESAAELRFCHDELARELRRCLAPEQMKQLAGDVVCVHEAILRRAFFLAERETMKRSVGIRPPAWCWYVMGSIGRREPTIWTDQDHGILFDCPEEEEAACYEFIRHMAAVGVDMLHEAGYPYCSGYVMATNKRWAQSVRGWEQQLSSYLDSGWPNDIRFLLIAMDMRPLYGETELAEEGRRMLFSAVAKRPPLLAVRPAWVRRYRVKVPNGGWRAPTVS	not soluble
MGSDKIHHHHHHMFRIQLRTMSSKTCKSDYPKEFVSFLNSSHSPYHTVHNIKKHLVSNGFKELSERDSWAGHVAQKGKYFVTRNGSSIIAFAVGGKWEPGNPIAITGAHTDSPALRIKPISKRVSEKYLQVGVETYGGAIWHSWFDKDLGVAGRVFVKDAKTGKSIARLVDLNRPLLKIPTLAIHLDRDVNQKFEFNRETQLLPIGGLQEDKTEAKTEKEINNGEFTSIKTIVQRHHAELLGLIAKELAIDTIEDIEDFELILYDHNASTLGGFNDEFVFSGRLDNLTSCFTSMHGLTLAADTEIDRESGIRLMACFDHEEIGSSSAQGADSNFLPNILERLSILKGDGSDQTKPLFHSAILETSAKSFFLSSDVAHAVHPNYANKYESQHKPLLGGGPVIKINANQRYMTNSPGLVLVKRLAEAAKVPLQLFVVANDSPCGSTIGPILASKTGIRTLDLGNPVLSMHSIRETGGSADLEFQIKLFKEFFERYTSIESEIVV	not soluble
MGSDKIHHHHHHMSYGYDKNADDIMKNADHIFEIKGIMRFPDRLKESIGDISIRSFAKKCGLSEGVMRNYLAGKTYPSLDKLALMAEVSNKPLDWLVAGTEHNFNELNEPGSKYVIGINLEEYALIPGYRVQVSAGHGALNCDQQDPVRYLAFRRKWLKYRGFEEHELAIVWAKGDSMEPTIHSNDTLVVHLGRNSPADGHIYIFRNGDDLFVKRYQNAFGSWRLISDNPVYDKLDIPKHEQHQFEVVGQVVHIAKDIGD	not soluble
MSLTTSKTRKSGVAMTEKLELDPARTAIVLIEYQNEFTSDGGVLHGAVADVMQHTGMLANTVAVVDAARQAGVPIMHAPITFAEGYGELTRHPYGILKGVVDGKAFVKGTWGAAIVDELAPVNGDIVIEGKRGLDTFASTNLDFILRSKGVDTIVLGGFLTNCCVESTMRTGYERGFRVITLTDCVAATSQEEHNNAISYDFPMFSVPMTSADVIAALEGHHHHHH	soluble
MSLTVLPVPDLLARALDRRAGLPGAGTTFFRAVHITETGGLWTLDVAGDAGILSLYTDLSAEAERDLAAQCGEAAGLSSVYLKRRPPEAKHLANVAREVLSPPDPLWGTARPEVTALEEGVPFLIRPGADLSVGLFSDARPARRWVRGHAAGQRVLNTFAYTCGFGLNAALAGAASVKNVDLSRKVLGWGQQNYALSGLAAPDHDFLYGDVFEWLTRLQRRGDLFDLVILDPPGFARSKAGTWRAEKDYGRLMAQASAVTAPGGEVLALLNHAGVSAGGLTHMVEQGLSTAGRRGHLTETLGPGRDYPGATHLKVQRWSLNEGGSHHHHHH	soluble
MSRYLITFDMDTNCLKDNYHGNNYTNAYSDIKTILARHGFENIQGSVYLGREGISEAHGTIAIQELTARFDWFYSCISNIKFYRLESDLNAQFIADGVYQAKQAFLQRVEQLRISLTEAGLSDEQINQVLEKQKFELESPNLKLN	not soluble
MSDNSTGTTKSRSNVDDVQAHYDLSDAFFALFQDPTRTYSCAYFERDDMTLHEAQVAKLDLTLGKLGLEPGMTLLDVGCGWGSVMKRAVERYDVNVVGLTLSKNQHAYCQQVLDKVDTNRSHRVLLSDWANFSEPVDRIVTIEAIEHFGFERYDDFFKFAYNAMPADGVMLLHSITGLHVKQVIERGIPLTMEMAKFIRFIVTDIFPGGRLPTIETIEEHVTKAGFTITDIQSLQPHFARTLDLWAEALQAHKDEAIEIQSAEVYERYMKYLTGCAKAFRMGYIDCNQFTLAK	soluble
MGSDKIHHHHHHMNQKTRLTLILDELKTHPSLSLKDIMQLTGTSRDTARRDIVKLAAHNLAERNYGGISRPNTFNKLDQYLDRDDDLLQTKRALAHTASSYLLNDALLFLDISTTVACLPQYLQSKHPGMIVTNSLDIADQALRHSNFQTRILGGTLDAQQRCVQGADSILALHKFRFTTTVLSCAGLTADGVYYAYESDIALKETLRAQSDRLVLLFDHTKVNVSHNFNLLALSDFDYFVTDQPLPDNLATKIAPDKLIYL	not soluble
MTVTLTCRFKLELSKDQKQQFLDIATAYTNAVNYVLEQNLKDKSTNVKKLHRLYYKTIREDFDLPAQMAINVNRDVSAMYKTLWAQFKELKRRKPDSKAVKKFWDKPPKRKSLIVKYTYNRTASFKKINGEWHASLSTLQGRIKWIPMKGWSKHFEYLKSCKIGDPILTYDKSSKTFFLLVPVTLEVQEHQPKEIVGVDVGERHIAAVASTKGTRYLIDLPEEFKQRKQHYQRLRSELMSKGTRSAKRKLARISRREKRFTENVLHIIAKKLTTSHPGARFVLEDLTQIRANRITYRGKDKEARRQSEQWPFASLQQKIEYKAKLYYGVQSEKVDPSYTSQTCPRCGHVSKENRPDHGERFVCQSCGYEEHADIVGAINIALRVLAKDQQVNLEKLLGAVVSRPDAPRLG	not soluble
MGHHHHHHSHKPVPWVEKYRPKCVDEVAFQEEVVAVLKKSLEGADLPNLLFYGPPGTGKTSTILAAARELFGPELFRLRVLELNASDERGIQVVREKVKNFAQLTVSGSRSDGKPCPPFKIVILDEADSMTSAAQAALRRTMEKESKTTRFCLICNYVSRIIEPLTSRCSKFRFKPLSDKIQQQRLLDIAKKENVKISDEGIAYLVKVSEGDLRKAITFLQSATRLTGGKEITEKVITDIAGVIPAEKIDGVFAACQSGSFDKLEAVVKDLIDEGHAATQLVNQLHDVVVENNLSDKQKSIITEKLAEVDKCLADGADEHLQLISLCATVMQQLSQNC	not soluble

Reference: the DeepSol protein solubility set
